The results in this text go back to the Human Domainome abundance scans (Beltran et al. 2025).

Sequences and labels used below:
B1: TGF-beta-activated kinase 1 and MAP3K7-binding protein 3, residues 12 to 50; numbered along this chain, Q8N5C8 (parent)
chain: VLHDLRQRFPEIPEGVVSQCMLQNNNNLEACCRALSQES

± gives the uncertainty stated by the source.

The data set covers variants of B1. The data set can be described thus: abundance fitness (aPCA) (normalised: wild type 0, dead -1); higher = more abundant; growth selection in yeast, the domain comes from the species named. Conditions: Homo sapiens.
Consider VLHDLGQRFPEIPEGVVSQCMLQNNNNLEACCRALSQES [R6G], for which the abundance fitness is -0.486 ± 0.041.

On to VLHDLLQRFPEIPEGVVSQCMLQNNNNLEACCRALSQES [R6L], for which the abundance fitness was 0.056 ± 0.052.

For VLHDLMQRFPEIPEGVVSQCMLQNNNNLEACCRALSQES [R6M], the abundance fitness is 0.142 ± 0.056. Then VLHDLSQRFPEIPEGVVSQCMLQNNNNLEACCRALSQES [R6S], with -0.319 ± 0.074.

Regarding VLHDLCQRFPEIPEGVVSQCMLQNNNNLEACCRALSQES [R6C], the abundance fitness turned out to be 0.107 ± 0.053. Consider VLHDLTQRFPEIPEGVVSQCMLQNNNNLEACCRALSQES [R6T], for which the abundance fitness was -0.375 ± 0.098. Then VLHDLKQRFPEIPEGVVSQCMLQNNNNLEACCRALSQES [R6K], with 0.11 ± 0.067; and VLHDLPQRFPEIPEGVVSQCMLQNNNNLEACCRALSQES [R6P], with -0.91 ± 0.21; and VLHDLEQRFPEIPEGVVSQCMLQNNNNLEACCRALSQES [R6E], with -0.212 ± 0.078. Then VLHDLQQRFPEIPEGVVSQCMLQNNNNLEACCRALSQES [R6Q], with -0.19 ± 0.078; and VLHDLAQRFPEIPEGVVSQCMLQNNNNLEACCRALSQES [R6A], with -0.279 ± 0.045. Then VLHDLHQRFPEIPEGVVSQCMLQNNNNLEACCRALSQES [R6H], with -0.036 ± 0.15; and VEHDLRQRFPEIPEGVVSQCMLQNNNNLEACCRALSQES [L2E], with -0.588 ± 0.15; and VAHDLRQRFPEIPEGVVSQCMLQNNNNLEACCRALSQES [L2A], with -0.187 ± 0.058. In the case of VSHDLRQRFPEIPEGVVSQCMLQNNNNLEACCRALSQES [L2S], the abundance fitness is -0.221 ± 0.12. Then VRHDLRQRFPEIPEGVVSQCMLQNNNNLEACCRALSQES [L2R], with -0.464 ± 0.047; and VFHDLRQRFPEIPEGVVSQCMLQNNNNLEACCRALSQES [L2F], with 0.211 ± 0.12. Take VIHDLRQRFPEIPEGVVSQCMLQNNNNLEACCRALSQES [L2I]: the abundance fitness was -0.049 ± 0.07. Then VTHDLRQRFPEIPEGVVSQCMLQNNNNLEACCRALSQES [L2T], with -0.194 ± 0.14. Then VQHDLRQRFPEIPEGVVSQCMLQNNNNLEACCRALSQES [L2Q], with -0.276 ± 0.076.

VGHDLRQRFPEIPEGVVSQCMLQNNNNLEACCRALSQES [L2G]: the abundance fitness was -0.583 ± 0.069. Then VWHDLRQRFPEIPEGVVSQCMLQNNNNLEACCRALSQES [L2W], with -0.134 ± 0.049; and VHHDLRQRFPEIPEGVVSQCMLQNNNNLEACCRALSQES [L2H], with 0.077 ± 0.1.

On to VVHDLRQRFPEIPEGVVSQCMLQNNNNLEACCRALSQES [L2V], for which the abundance fitness was -0.531 ± 0.065. Then VNHDLRQRFPEIPEGVVSQCMLQNNNNLEACCRALSQES [L2N], with -0.058 ± 0.1; and VPHDLRQRFPEIPEGVVSQCMLQNNNNLEACCRALSQES [L2P], with -0.246 ± 0.27; and VLHDLRQWFPEIPEGVVSQCMLQNNNNLEACCRALSQES [R8W], with -0.975 ± 0.14. For the variant VLHDLRQCFPEIPEGVVSQCMLQNNNNLEACCRALSQES [R8C], the abundance fitness was -0.987 ± 0.19. For VLHDLRQQFPEIPEGVVSQCMLQNNNNLEACCRALSQES [R8Q], the abundance fitness was -0.73 ± 0.29. Then VLHDLRQDFPEIPEGVVSQCMLQNNNNLEACCRALSQES [R8D], with -0.722 ± 0.27; and VLHDLRQPFPEIPEGVVSQCMLQNNNNLEACCRALSQES [R8P], with -1.08 ± 0.24. Then VLHDLRQAFPEIPEGVVSQCMLQNNNNLEACCRALSQES [R8A], with -0.544 ± 0.066. Then VLHDLRQMFPEIPEGVVSQCMLQNNNNLEACCRALSQES [R8M], with 0.071 ± 0.092; and VLHDLRQHFPEIPEGVVSQCMLQNNNNLEACCRALSQES [R8H], with -0.907 ± 0.4. Consider VLHDLRQGFPEIPEGVVSQCMLQNNNNLEACCRALSQES [R8G], for which the abundance fitness is -0.944 ± 0.065. Then VLHDLRQEFPEIPEGVVSQCMLQNNNNLEACCRALSQES [R8E], with -0.469 ± 0.077; and VLHDLRQKFPEIPEGVVSQCMLQNNNNLEACCRALSQES [R8K], with 0.054 ± 0.095.

On to VLHDLRQIFPEIPEGVVSQCMLQNNNNLEACCRALSQES [R8I], for which the abundance fitness was -0.403 ± 0.069. Then VLHDLRQLFPEIPEGVVSQCMLQNNNNLEACCRALSQES [R8L], with -0.168 ± 0.052. Then VLHDLRQTFPEIPEGVVSQCMLQNNNNLEACCRALSQES [R8T], with -0.877 ± 0.21; and VLHDARQRFPEIPEGVVSQCMLQNNNNLEACCRALSQES [L5A], with -0.905 ± 0.094. Then VLHDKRQRFPEIPEGVVSQCMLQNNNNLEACCRALSQES [L5K], with -0.532 ± 0.08. As to VLHDVRQRFPEIPEGVVSQCMLQNNNNLEACCRALSQES [L5V], the abundance fitness is -0.896 ± 0.097.

As to VLHDHRQRFPEIPEGVVSQCMLQNNNNLEACCRALSQES [L5H], the abundance fitness was -0.4 ± 0.34.

Regarding VLHDWRQRFPEIPEGVVSQCMLQNNNNLEACCRALSQES [L5W], the abundance fitness was -0.885 ± 0.14.

Take VLHDQRQRFPEIPEGVVSQCMLQNNNNLEACCRALSQES [L5Q]: the abundance fitness was -0.589 ± 0.14. Then VLHDMRQRFPEIPEGVVSQCMLQNNNNLEACCRALSQES [L5M], with -0.493 ± 0.074. For the variant VLHDIRQRFPEIPEGVVSQCMLQNNNNLEACCRALSQES [L5I], the abundance fitness turned out to be 0.286 ± 0.22. Then VLHDSRQRFPEIPEGVVSQCMLQNNNNLEACCRALSQES [L5S], with -0.914 ± 0.18; and VLHDERQRFPEIPEGVVSQCMLQNNNNLEACCRALSQES [L5E], with -0.362 ± 0.073; and VLHDRRQRFPEIPEGVVSQCMLQNNNNLEACCRALSQES [L5R], with -0.722 ± 0.064. Then VLHDDRQRFPEIPEGVVSQCMLQNNNNLEACCRALSQES [L5D], with -0.191 ± 0.062; and RLHDLRQRFPEIPEGVVSQCMLQNNNNLEACCRALSQES [V1R], with -0.291 ± 0.4; and FLHDLRQRFPEIPEGVVSQCMLQNNNNLEACCRALSQES [V1F], with -0.228 ± 0.13. Then MLHDLRQRFPEIPEGVVSQCMLQNNNNLEACCRALSQES [V1M], with 0.19 ± 0.065; and SLHDLRQRFPEIPEGVVSQCMLQNNNNLEACCRALSQES [V1S], with -0.048 ± 0.12. WLHDLRQRFPEIPEGVVSQCMLQNNNNLEACCRALSQES [V1W]: the abundance fitness was -0.361 ± 0.14.

For DLHDLRQRFPEIPEGVVSQCMLQNNNNLEACCRALSQES [V1D], the abundance fitness came out at 0.022 ± 0.13. Then QLHDLRQRFPEIPEGVVSQCMLQNNNNLEACCRALSQES [V1Q], with 0.235 ± 0.29; and ALHDLRQRFPEIPEGVVSQCMLQNNNNLEACCRALSQES [V1A], with -0.38 ± 0.085.

As for NLHDLRQRFPEIPEGVVSQCMLQNNNNLEACCRALSQES [V1N], the abundance fitness is 0.252 ± 0.17. Then ELHDLRQRFPEIPEGVVSQCMLQNNNNLEACCRALSQES [V1E], with 0.043 ± 0.055; and GLHDLRQRFPEIPEGVVSQCMLQNNNNLEACCRALSQES [V1G], with -0.193 ± 0.056.

In the case of LLHDLRQRFPEIPEGVVSQCMLQNNNNLEACCRALSQES [V1L], the abundance fitness came to 0.311 ± 0.09.
